Laboratory results reported in patent US20250009799A1 (Amgen, published 2025).

Target: putative cross-reactive peptide arising from SH2D3A, on HLA-A*02:01 of T2 cells (human)
Test: cell-based or functional assay

EC50 in T2/peptide TDCC assay, against the DCAF4L2 target peptide: 87 fold
B1: TCR2 (TCR, V domains shown)
V domain 1: EDQVTQSPEALRLQEGESSSLNCSYTVSGLRGLFWYRQDPGKGPEFLFTLYSAGEEKEKERLKATLTKKESFLHITAPKPEDSATYLCAVQAWGGGSQGNLIFGKGTKLSVKP
V domain 2: DSGVTQTPKHLITATGQRVTLRCSPRSGDLSVYWYQQSLDQGLQFLIQYYNGEERAKGNILERFSAQQFPDLHSELNLSSLELGDSALYFCASSAGDRGYEQYFGPGTRLTVTE
